B1: purified DnaD winged helix domain, wild type (B. subtilis, amino acids 1-128) (domain or fragment, UniProt P39787 1-128, looked up)
chain: MKKQQFIDMQEQGTSTIPNLLLTHYKQLGLNETELILLLKIKMHLEKGSYFPTPNQLQEGMSISVEECTNRLRMFIQKGFLFIEECEDQNGIKFEKYSLQPLWGKLYEYIQLAQNQTQERKAEGEQKS
B2: purified DnaD winged helix domain I83A (B. subtilis, amino acids 1-128) (domain or fragment, UniProt P39787 1-128, looked up)
chain: B1 chain with I83A
B3: purified DnaA domain I, wild type (B. subtilis, amino acids 1-82) (domain or fragment, UniProt P05648 1-82, looked up)
chain: MENILDLWNQALAQIEKKLSKPSFETWMKSTKAHSLQGDTLTITAPNEFARDWLESRYLHLIADTIYELTGEELSIKFVIPQ
B4: purified DnaD winged helix domain F51A (B. subtilis, amino acids 1-128) (domain or fragment, UniProt P39787 1-128, looked up)
chain: B1 chain with F51A

The data set “cross-linking” deals with the molecule itself. Kind of data set: cross-linking.
Data set [1] deals with B1. The data set can be described thus: cross-linking.

Positions count from the first letter of the chain named. Names and notes keep the numbering of the source.

As to B1, the binding result in the data set “cross-linking” is on record as “binds”.

Consider B2, for which the “stoichiometry N” value in the data set “cross-linking” was 4.

With B3, in data set [1], the binding result is given as “binds”.

In the case of B4, in “cross-linking”, the “stoichiometry N” value was 4.

The record behind these values is PMC6351176 (Molecular microbiology, 2018).
